Test [1] addresses human M-CSF (macrophage colony stimulating factor) (human) (UniProt P09603). The experiment in a line: cell-based or functional assay.
The target is the same in test [2]. The test can be described thus: c-fms receptor binding inhibition assay: antibody varied, 125I-M-CSF binding to c-fms-bearing cells.

B1: monoclonal antibody 9.7.2 (antibody, human IgG4, kappa, V domains shown)
VH: QVQLVESGGGLVKPGGSLRLSCAASGFTFSDYYMSWIRQAPGKGLEWVSYISSSGSTIYYADSVKGRFTISRDNAKNSLYLQMNSLRAEDTAVYYCARRIGGMDVWGQGTTVTVSS
VL: DIQMTQSPSSLSASVGDRVTITCRASQSISGFLIWYQQRPGKAPKLLIYATSSLQSGVPLRFSGSESGTDFTLTISSLQPEDFATYYCQQSYSTPFTFGPGTKVDIKR
Consider B1, for which, in test [1], the Human Whole Blood Monocyte Activation Assay [IC50, M] turned out to be 1.98e-10 M and the M-CSF Mouse Monocytic Cell Proliferation Assay [IC50, M] came out at 7.37e-10 M. The IC50 in test [2] stood at 6 pM.

As usually defined, the IC50 is the concentration that inhibits the measured activity by half. The low end stands for greater potency, the high end for weaker potency.

The values above are taken from patent US20060153850A1.
